Results: a protein production outcome set (Wang et al. 2014)

Assay: label from the status in PepcDB records

With “MSPIVSVPDITAPVENVPAILPKVVPGELIVNKPTGGDSDELFQYLVDILASPVYDVAIESPLELAEKLSDRLGVNFYIKREDKQRVFSFKLRGAYNMMSNLSREELDKGVITASAGNHAQGVALAGQRLNCVAKIVMPTTTPQIKIDAVRALGGDVVLYGKTFDEAQTHALELSEKDGLKYIPPFDDPGVIKGQGTIGTEINRQLKDIHAVFIPVGGGGLIAGVATFFKQIAPNTKIIGVEPYGAASMTLSLHEGHRVKLSNVDTFADGVAVALVGEYTFAKCQELIDGMVLVANDGISAAIKDVYDEGRNILETSGAVAIAGAAAYCEFYKIKNENIVAIASGANMDFSKLHKVTELAGLGSGKEALLATFMVEQQGSFKTFVGLVGSLNFTELTYRFTSERKNALILYRVNVDKESDLEKMIEDMKSSNMTTLNLSHNELVVDHLKHLVGGSANISDEIFGEFIVPEKAETLKTFLDAFSPRNITLCRYRNQGDINASLLMGFQVPQAEMDEFKNQADKLGYPYELDNYNEAFNLVVSE” the protein production was “not failed”.

With “MRFHLPGPEDTVRLGRALAKALLQIDGLRVVLLAGTLGSGKTTMTRGLVAELPGGGMAEVSSPSFNICNLYPTTPPTAHFDLYRLEGNEPDDALLDLIDEGESIILIEWAEHLPEYALPPVWLRLAWHAAGEGRIVEAHGNGAPALVALDMVAAGVPDLVQP” the protein production was “failed”.

With “MRRPVSKWALLALLFTALLAADQWTKYLAVERLTVVFERGGDETLAERVRGFYTYRHLEPLSTEPYYVWRPVWRMNYVENPGAAWGLFRGHSQFFRNAFFTLVSVAAVAFILHYYRKLRQDQRYLQVALGLVLAGAVGNFVDRLARRYVIDFIEWYWWNRPDIRWPTFNVADSLIVVGVAMLVLHPGSRREAARAPARRDAAAERV” the protein production was “failed”.

With “MKQRIPTLLAGACLAIPLHALGAADLLVVNARIFTANPQQPFAEALAVEDGRILAVGDEAGLRALADGDSQVVDLGGKRLMPGLIDTHSHAVFGGLELAGADMGNEQVGLDELERRLRAWRDNGKARHGDMLNVSGMHTAYWSQVKDFRARFDHGEWADQPLAFIGSDHHTGWANAAMLKRAGIDAARVRALPEEQRNTIGHDADATPNGFLADAGLDAVLAVLPAPSAEQMLEAGRSAVRYSNSLGLTAWMDPAANGSPGDALFSLRPDENTVGVLPVYHRLAKGGELSAHVAALLVANPRSRPTDLEVLDKVRQRFLGSPNLTLPGIKVFADGVPEYPAQTAALLEPYRNSRKTGELLIDPAHFGELVSAADARGWLVHVHAIGDRAVREALNGMQQARRDRDSGIAHSITHLQLVNPKEFERFRPLGVIASMQLYWAAADETTVDLMKPYISAFAYRYQYPAHSLLSKGATIAGASDWPVSSLSPWKAIQQAVTRKGPQGVLNAGERLDRQTMFYAYTRNAARTIGLEHRIGSLEPGKQADFIVLDRDVFEVPETQLGETKVLKTWFAGKPVYSSEG” the protein production was “failed”.

In the case of “MSADIEHIRQIMREADCLYTEAEVDAAIARVGAQINAELADRNPVVFCVMNGGLIFSGKLLTHLNFPLEASYLHATRYRNETTGGDLFWKAKPEVSFIDRDVLIIDDILDEGHTLGAIIDFCKHAGARAVHTAVLIDKDHDRKARPDLKADYVGLPCIDRYIFGFGMDYKGYWRNAAGIYAVKG”, the protein production was “failed”.

In the case of “MAGHTDNEITIAAPMELVWNMTNDIEKWPGLFSEYASVEVLGRDDDKVTFRLTMHPDADGKVWSWVSERVADPVTRTVRAQRVETGPFQYMNIVWEYAETAEGTVMRWTQDFAMKPDAPVDDAWMTDNINRNSRTQMALIRDRIEQAAGERRTASVLADLEHHHHHH”, the protein production was “not failed”.

With “MDNMAIADRRRLRRKLTFWRVAAVLLLVVGAFGLYRFFWQGPQQSAKPHIARIEVSGLITDNTELLERLDKIAKSDNVKGLIVSISSPGGTTYGGERIFKVIRSVAEKKPVVSDVRTLAASAGYMIASAGDVIVAGETSITGSIGVIFQYPQLGQLMEKLGVSLQEIKSSPMKAEPSPFHEAPEEAKTMIRAMVMDSYGWFVDLVADRRKLPREEVLKLADGSIFTGRQALANKLVDTLGGEKEVRAYFETRGVAKDLPIVEWRAPSSNSPFALFSVAQIAKLLGYDDLIPFAGPSQLGADKLFLDGLVSVWQVEPRLEHHHHHH” the protein production was “not failed”.

In the case of “MAEEAALNFADFYDAELALHNAHFRVTAAVGRSDRVLDVGCGAGQTTRDAARAAEAGRAHGIDLSATMLEIARRRSAEEGLPNATFELADAQNYHFAKGEFDLCISRFGVMFFADPAVAFANIANAVRPGGRFIFMVWQGRDHNEWATAIHEALDPDSTGPVAAGKAFSLSETSVTSGLLETAGFTAIEFREINEPVFYGPDPETALVTIQTFENVKNALDRPATTAEIRARLLDMLEAHQTPHGVQFDSRAWLITGGRYGDSPPCFIGDFRSA”, the protein production was “failed”.

In the case of “MQRFALIGAGFIGGVHGDNLAAHPDVDLALVFDIDLARATDLAKRHGSRATTDLAEVFDPTAIDAVFIASSSNTHAEHLRAAATAGIPALCEKPIDLDLAHAVDIVRFAETRSLRAMVDFNRRFDRDYAELQRVVASGEIGSVELIQMTSRGPAMPPLEYIAVSGGQMRDQTVHFFDLARWISGLDPESVFATGSTLAEPRLAEYGDVDTSAVTLRLPGGALVQIDCTRRIGYGYDERIEVLGSTGMVEARRQRAGSVSRYSAGRVVDDGLHAGWFERIRGSYRTALDHFVDALENGAAIGPTLAEGLKAQAIAEAATRSLTSGRMEPIEYPA”, the protein production was “failed”.

For “MSKRILFIVGSFSEGSFNRQLAKKAETIIGDRAQVSYLSYDRVPFFNQDLETSVHPEVAHAREEVQEADAIWIFSPVYNYAIPGPVKNLLDWLSRSLDLSDPTGPSVLQDKIVTVSSVANGASPEEVFEDYRSLLPFIRMHLVDQLTGVPINSEAWSTGILKVSAEKLAELSAQADALLSAVENLEHHHHHH”, the protein production was “not failed”.

With “MATLEITDIALVQPSHQPLSNDQTLSLSHLDNDNNLHVSFRYLRVYSSSSSTVAGESPSAVVSASLATALVHYYPLAGSLRRSASDNRFELLCSAGQSVPLVNATVNCTLESVGYLDGPDPGFVERLVPDPTREEGMVNPCILQVTMFQCGGWVLGASIHHAICDGLGASLFFNAMAELARGATKISIEPVWDRERLLGPREKPWVGAPVRDFLSLDKDFDPYGQAIGDVKRDCFFVTDDSLDQLKAQLLEKSGLNFTTFEALGAYIWRAKVRAAKTEEKENVKFVYSINIRRLMNPPLPKGYWGNGCVPMYAQIKAGELIEQPIWKTAELIKQSKSNTSDEYVRSFIDFQELHHKDGINAGTGVTGFTDWRYLGHSTIDFGWGGPVTVLPLSNKLLGSMEPCFFLPYSTDAAAGSKKDSGFKVLVNLRESAMPEFKEAMDKFHKGEFALS” the protein production was “failed”.

In the case of “MWKAVMNAWNGTESQSKNVSNIQSYSFEDMKRIVGKHDPNVVLVDVREPSEYSIVHIPASINVPYRSHPDAFALDPLEFEKQIGIPKPDSAKELIFYCASGKRGGEAQKVASSHGYSNTSLYPGSMNDWVSHGGDKLDL”, the protein production was “not failed”.

With “MPLPPSNGMGTAALVLGIISTVVFCLWPLAIVMGVLSVVFGVIGRRRARRGEATNAGQALAGIICGAVGIVLGVAFMVIIFAAAESSSDPWSTTDDSYSTSLVVHADR” the protein production was “failed”.

For “SDRKVAREFRHKVDFLIENDAEKDYLYDVLRMYHQTMDVAVLVGDLKLVINEPSRLPLFDAIRPLIPLKHQVEYDQLTPRRSRKLKEVRLDRLHPEGLGLSVRGGLEFGCGLFISHLIKGGQADSVGLQVGDEIVRINGYSISSCTHEEVINLIRTKKTVSIKVRHIGLIPVKSSPDEPLTWQYVDQFVSESGGVRGSLGSPGNRENKEKKVFISLVGSRGLGCSISSGPIQKPGIFISHVKPGSLSAEVGLEIGDQIVEVNGVDFSNLDHKEGRELFMTDRERLAEARQRELQRQELLMQKRLAMESNKILQEQQEMERQRRKEIAQKAAEENERYRKEMEQIVEEEEKFKKQWEEDWGSKEQLLLPKTITAEVHPVPLRKPKYDQGVEPELEPADDLDGGTEEQGEQDFRKYEEGFDPYSMFTPEQIMGKDVRLLRIKKEGSLDLALEGGVDSPIGKVVVSAVYERGAAERHGGIVKGDEIMAINGKIVTDYTLAEADAALQKAWNQGGDWIDLVVAVCPPKEYDDELTFF”, the protein production was “failed”.

For “MKPVFLDFEQPIAELTNKIDELRFVQDESAVDISDEIHRLQKKSNDLTKSIFSKLTPAQISQVSRHPQRPYTLDYIEALFTDFEELHGDRHFADDYAIVGGLARFNGQSVMVVGHQKGRDTKEKIRRNFGMPRPEGYRKALRLMKTAEKFGLPVMTFIDTPGAYPGIGAEERGQSEAIGKNLYELTRLRVPVLCTVIGEGGSGGALAVALGDYVNMLQYSTYSVISPEGCASILWKTAEKAADAAQALGITADRLQKLDLVDTVIKEPLGGAHRDFGQTMKNVKAVLEKQLHEAQSIPLADLLSRRFDRIMAYGKFSEQ”, the protein production was “not failed”.

With “MARFDRYLLSQLVALFGFFSLVLVLVYWINRAVGLFDDLISDGQSALVFLEFSLLALPNVIRLVLPLSAFAATIYVVNRLSQESELVVMQATGFSAFRLARPVIWFGLIVALMMIVLMNLLVPASRATLSARSAEISQNATARFLRDGEFLHPADGVTLYIREVTETGELRDLLLVDDRDPARSTAYTARRALLVRTDTTPKLLMIDGSAQTLTREGRRLELTRFDDVTYDLGAFMTGSGPKRRVLEELPTMTLLAPTAEVLEETRSTRAAALYEGHSRIGQPFLGFASSLIGFAALLLGSFSRFGLWWQILFAVLLLIVVQTINVAASGVGVTDEQLWPLAYAAPVTGFAIGILLLWIGQRPRRLRRALNGIFAS” the protein production was “failed”.

For “MSLLDAHIPQLIASHTAFAAKAGLMRHTIGQAEQQAMSAQAFHQGESAAAFQGAHARFVAAAAKVNTLLDIAQANLGEAAGTYVAADAAAASSYTGF”, the protein production was “failed”.

In the case of “MTFRDLLSVSFEGPRPDSSAGGSSAGGGGGSAGGAAPSEGPAVGGVPGGAGGGGGVVGAGSGEDNRSSAGEPGSAGAGGDVNGTAAVGGLVVSAQGVGVGVFLAAFILMAVAGNLLVILSVACNRHLQTVTNYFIVNLAVADLLLSATVLPFSATMEVLGFWAFGRAFCDVWAAVDVLCCTASILSLCTISVDRYVGVRHSLKYPAIMTERKAAAILALLWVVALVVSVGPLLGWKEPVPPDERFCGITEEAGYAVFSSVCSFYLPMAVIVVMYCRVYVVARSTTRSLEAGVKRERGKASEVVLRIHCRGAATGADGAHGMRSAKGHTFRSSLSVRLLKFSREKKAAKTLAIVVGVFVLCWFPFFFVLPLGSLFPQLKPSEGVFKVIFWLGYFNSCVNPLIYPCSSREFKRAFLRLLRCQCRRRRRRRPLWRVYGHHWRASTSGLRQDCAPSSGDAPPGAPLALTALPDPDPEPPGTPEMQAPVASRRKPPSAFREWRLLGPFRRPTTQLRAKVSSLSHKIRAGGAQRAEAACAQRSEVEAVSLGVPHEVAEGATCQAYELADYSNLRETDI”, the protein production was “failed”.

In the case of “MNIETLMIKNPPILSKEDRLGSAFKKINEGGIGRIIVANEKIEGLLTTRDLLSTVESYCKDSCSQGDLYHISTTPIIDYMTPNPVTVYNTSDEFTAINIMVTRNFGSLPVVDINDKPVGIVTEREFLLLYKDLDEIFPVKVFMSTKVQTIYKEVRLDQAVKLMLRRGFRRLPVIDDDNKVVGIVTVVNAIKQLAKAVDKLDPDYFYGKVVKDVMVTNLVTIDELASVNRAAAEMIVKRIGSLLILNKDNTIRGIITERDLLIALHHILVMEKFKEKL”, the protein production was “not failed”.

In the case of “TDDEEKDNNGQGSVSVETNYLPIADPYVMFYNNKYYAYGTGGTTAGEGFACFSSDDLKNWKREGQALSATDSYGTWGFWAPEVYYVESKKKFYLFYSAEEHICVATSTTPEGPFRQEVKQPIWSEKSIDTSLFIDDDGTPYLYFVRFTDGNVIWVAQMTDDLMSIKTETLNQCIKAEVSWELLQGKVAEGPSLLKKNGVYYLIYSANHYENKGYGVGYATSDTPMGPWVKYSKNPLLQGDAATGLVGTGHGAPFQCKDGSWKYIFHAHWSAAEIQPRTSYIKDFAISDQGVVTISGTVIKPRVLK”, the protein production was “not failed”.

For “MPGIDFDALYRGESPGEGLPPITTPPWDTKAPKDNVIGWHTGGWVHGDVLDIGCGLGDNAIYLARNGYQVTGLDISPTALTTAKRRASDAGVDVKFAVGDATKLTGYTGAFDTVIDCGMFHCLDDDGKRSYAASVHRATRPGATLLLSCFSNAMPPDEEWPRSTVSEQTLRDVLGGAGWDIESLEPATVRRELDGTEVEMAFWNVRAQRRGS”, the protein production was “failed”.
